Reference: US7271238

Biological target: amylin receptors (rat basal forebrain membranes, containing the nucleus accumbens and surrounding regions) (rat)
Assay: competition radioligand binding, displacement of 125I-rat amylin from rat basal forebrain membranes

IC50 | Molecule
0.015 nM | 28Pro-human-Amylin (peptide)
0.01 nM | KCNTATCATQRLANFLVHSSNNFGPILPPTNVGSNTY (2,7-disulfide; made on methylbenzhydrylamine resin (C-terminal amide not spelled out)) [25,28,29Pro-h-Amylin]
